The results in this text go back to publication PMC7733459, “A serine protease secreted from Bacillus subtilis cleaves human plasma transthyretin to generate an amyloidogenic fragment” (Communications Biology, 2020).

This data set deals with the molecule itself. The data set is described as follows: dynamic light scattering + native gel or EMSA; fragment at 0.23 mg/ml in 10 mM phosphate buffer, pH 7.4, 25 °C, immediately after dissolving the lyophilisate; native PAGE 5–12% acrylamide.

B1: hTTR(59–127) (domain or fragment)
chain: not shown
notes: transthyretin, human, C-terminal proteolytic fragment Thr59-Glu127 (7757.4 Da) from cleavage at the Leu58-Thr59 bond; also called Thr59-Glu127 peptide; source: cleavage of plasma-purified hTTR by B. subtilis subtilisin, purified by semi-preparative RP-HPLC, lyophilized
As to B1, the binding result is recorded as “binds”.
